{"source": "patent US20080305212A1", "binders": {"B1": {"name": "Bowman-Birk inhibitor (commercial preparation, Cat # T-9777, Sigma-Aldrich) (protein, UniProt P01055 40-110, looked up)", "chain": "DDESSKPCCDQCACTKSNPPQCRCSDMRLNSCHSACKSCICALSYPAQCFCVDITDFCYEPCKPSEDDKEN"}}, "assay_in_all_cases": "cell-based or functional assay", "key": {"[1]": {"molecular_target": "T1, Trypsin-like protease (TL5) from Fusarium solani (Fusarium solani)", "T1 sequence": "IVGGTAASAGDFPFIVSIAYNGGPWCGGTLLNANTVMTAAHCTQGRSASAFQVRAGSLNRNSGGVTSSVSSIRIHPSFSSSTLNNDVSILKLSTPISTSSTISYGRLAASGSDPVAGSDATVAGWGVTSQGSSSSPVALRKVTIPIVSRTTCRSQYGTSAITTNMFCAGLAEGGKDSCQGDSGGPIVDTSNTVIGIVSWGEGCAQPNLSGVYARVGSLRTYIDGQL"}, "bovine trypsin (bovine)": {"molecular_target": "bovine trypsin (bovine) (UniProt P00760)"}, "[2]": {"molecular_target": "T2, Trypsin-like protease (TL1) from Fusarium oxysporum (Fusarium oxysporum) (UniProt P35049)", "T2 sequence": "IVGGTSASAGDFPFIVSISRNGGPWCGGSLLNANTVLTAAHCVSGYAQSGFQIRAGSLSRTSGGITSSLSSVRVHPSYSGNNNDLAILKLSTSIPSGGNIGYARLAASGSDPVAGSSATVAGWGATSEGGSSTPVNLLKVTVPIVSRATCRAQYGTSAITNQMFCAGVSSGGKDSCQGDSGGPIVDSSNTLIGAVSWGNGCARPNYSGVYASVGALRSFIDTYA"}, "[3]": {"molecular_target": "porcine trypsin (porcine) (UniProt P00761)"}, "[4]": {"molecular_target": "T3, Trypsin-like protease (TL6) from Fusarium cf. solani (Fusarium cf. solani)", "T3 sequence": "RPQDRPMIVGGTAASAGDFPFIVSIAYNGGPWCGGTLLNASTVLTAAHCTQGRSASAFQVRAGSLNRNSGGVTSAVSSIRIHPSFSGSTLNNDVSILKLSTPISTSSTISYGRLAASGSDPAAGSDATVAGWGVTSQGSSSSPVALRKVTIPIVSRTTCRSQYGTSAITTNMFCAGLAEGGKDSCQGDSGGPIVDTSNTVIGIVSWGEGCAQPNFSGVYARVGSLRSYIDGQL"}}}
{"binder": "B1", "values": [{"measurement": "% residual activity at 0.00048 mg/ml Bowman-Birk inhibitor (% residual activity)", "setting": "[1]", "value": 78}, {"measurement": "% residual activity at 0.00097 mg/ml Bowman-Birk inhibitor (% residual activity)", "setting": "[1]", "value": 71}, {"measurement": "% residual activity at 0.00195 mg/ml Bowman-Birk inhibitor (% residual activity)", "setting": "[1]", "value": 57}, {"measurement": "% residual activity at 0.0039 mg/ml Bowman-Birk inhibitor (% residual activity)", "setting": "[1]", "value": 55}, {"measurement": "% residual activity at 0.0078 mg/ml Bowman-Birk inhibitor (% residual activity)", "setting": "[1]", "value": 43}, {"measurement": "% residual activity at 0.0156 mg/ml Bowman-Birk inhibitor (% residual activity)", "setting": "[1]", "value": 29}, {"measurement": "% residual activity at 0.0313 mg/ml Bowman-Birk inhibitor (% residual activity)", "setting": "[1]", "value": 19}, {"measurement": "% residual activity at 0.0625 mg/ml Bowman-Birk inhibitor (% residual activity)", "setting": "[1]", "value": 7.2}, {"measurement": "% residual activity at 0.125 mg/ml Bowman-Birk inhibitor (% residual activity)", "setting": "[1]", "value": 3.1}, {"measurement": "% residual activity at 0.25 mg/ml Bowman-Birk inhibitor (% residual activity)", "setting": "[1]", "value": 1.2}, {"measurement": "% residual activity at 0.5 mg/ml Bowman-Birk inhibitor (% residual activity)", "setting": "[1]", "value": 0.5}, {"measurement": "% residual activity at 0.00048 mg/ml Bowman-Birk inhibitor (% residual activity)", "setting": "bovine trypsin (bovine)", "value": 0.9}, {"measurement": "% residual activity at 0.00097 mg/ml Bowman-Birk inhibitor (% residual activity)", "setting": "bovine trypsin (bovine)", "value": 5.3}, {"measurement": "% residual activity at 0.00195 mg/ml Bowman-Birk inhibitor (% residual activity)", "setting": "bovine trypsin (bovine)", "value": 0.1}, {"measurement": "% residual activity at 0.0039 mg/ml Bowman-Birk inhibitor (% residual activity)", "setting": "bovine trypsin (bovine)", "value": -0.4}, {"measurement": "% residual activity at 0.0078 mg/ml Bowman-Birk inhibitor (% residual activity)", "setting": "bovine trypsin (bovine)", "value": 0}, {"measurement": "% residual activity at 0.0156 mg/ml Bowman-Birk inhibitor (% residual activity)", "setting": "bovine trypsin (bovine)", "value": -1.5}, {"measurement": "% residual activity at 0.0313 mg/ml Bowman-Birk inhibitor (% residual activity)", "setting": "bovine trypsin (bovine)", "value": 0.1}, {"measurement": "% residual activity at 0.0625 mg/ml Bowman-Birk inhibitor (% residual activity)", "setting": "bovine trypsin (bovine)", "value": 0}, {"measurement": "% residual activity at 0.125 mg/ml Bowman-Birk inhibitor (% residual activity)", "setting": "bovine trypsin (bovine)", "value": 0}, {"measurement": "% residual activity at 0.25 mg/ml Bowman-Birk inhibitor (% residual activity)", "setting": "bovine trypsin (bovine)", "value": 0}, {"measurement": "% residual activity at 0.5 mg/ml Bowman-Birk inhibitor (% residual activity)", "setting": "bovine trypsin (bovine)", "value": 0}, {"measurement": "% residual activity at 0.00048 mg/ml Bowman-Birk inhibitor (% residual activity)", "setting": "[2]", "value": 117}, {"measurement": "% residual activity at 0.00097 mg/ml Bowman-Birk inhibitor (% residual activity)", "setting": "[2]", "value": 111}, {"measurement": "% residual activity at 0.00195 mg/ml Bowman-Birk inhibitor (% residual activity)", "setting": "[2]", "value": 103}, {"measurement": "% residual activity at 0.0039 mg/ml Bowman-Birk inhibitor (% residual activity)", "setting": "[2]", "value": 109}, {"measurement": "% residual activity at 0.0078 mg/ml Bowman-Birk inhibitor (% residual activity)", "setting": "[2]", "value": 82}, {"measurement": "% residual activity at 0.0156 mg/ml Bowman-Birk inhibitor (% residual activity)", "setting": "[2]", "value": 61}, {"measurement": "% residual activity at 0.0313 mg/ml Bowman-Birk inhibitor (% residual activity)", "setting": "[2]", "value": 32}, {"measurement": "% residual activity at 0.0625 mg/ml Bowman-Birk inhibitor (% residual activity)", "setting": "[2]", "value": 13}, {"measurement": "% residual activity at 0.125 mg/ml Bowman-Birk inhibitor (% residual activity)", "setting": "[2]", "value": 5.8}, {"measurement": "% residual activity at 0.25 mg/ml Bowman-Birk inhibitor (% residual activity)", "setting": "[2]", "value": 2.2}, {"measurement": "% residual activity at 0.5 mg/ml Bowman-Birk inhibitor (% residual activity)", "setting": "[2]", "value": 0.8}, {"measurement": "% residual activity at 0.00048 mg/ml Bowman-Birk inhibitor (% residual activity)", "setting": "[3]", "value": 11}, {"measurement": "% residual activity at 0.00097 mg/ml Bowman-Birk inhibitor (% residual activity)", "setting": "[3]", "value": 9.4}, {"measurement": "% residual activity at 0.00195 mg/ml Bowman-Birk inhibitor (% residual activity)", "setting": "[3]", "value": 8.3}, {"measurement": "% residual activity at 0.0039 mg/ml Bowman-Birk inhibitor (% residual activity)", "setting": "[3]", "value": 6.2}, {"measurement": "% residual activity at 0.0078 mg/ml Bowman-Birk inhibitor (% residual activity)", "setting": "[3]", "value": 3.2}, {"measurement": "% residual activity at 0.0156 mg/ml Bowman-Birk inhibitor (% residual activity)", "setting": "[3]", "value": 2.2}, {"measurement": "% residual activity at 0.0313 mg/ml Bowman-Birk inhibitor (% residual activity)", "setting": "[3]", "value": 1}, {"measurement": "% residual activity at 0.0625 mg/ml Bowman-Birk inhibitor (% residual activity)", "setting": "[3]", "value": 0.4}, {"measurement": "% residual activity at 0.125 mg/ml Bowman-Birk inhibitor (% residual activity)", "setting": "[3]", "value": 0.2}, {"measurement": "% residual activity at 0.25 mg/ml Bowman-Birk inhibitor (% residual activity)", "setting": "[3]", "value": 0.1}, {"measurement": "% residual activity at 0.5 mg/ml Bowman-Birk inhibitor (% residual activity)", "setting": "[3]", "value": 0.1}, {"measurement": "% residual activity at 0.00048 mg/ml Bowman-Birk inhibitor (% residual activity)", "setting": "[4]", "value": 104}, {"measurement": "% residual activity at 0.00097 mg/ml Bowman-Birk inhibitor (% residual activity)", "setting": "[4]", "value": 107}, {"measurement": "% residual activity at 0.00195 mg/ml Bowman-Birk inhibitor (% residual activity)", "setting": "[4]", "value": 94}, {"measurement": "% residual activity at 0.0039 mg/ml Bowman-Birk inhibitor (% residual activity)", "setting": "[4]", "value": 97}, {"measurement": "% residual activity at 0.0078 mg/ml Bowman-Birk inhibitor (% residual activity)", "setting": "[4]", "value": 84}, {"measurement": "% residual activity at 0.0156 mg/ml Bowman-Birk inhibitor (% residual activity)", "setting": "[4]", "value": 66}, {"measurement": "% residual activity at 0.0313 mg/ml Bowman-Birk inhibitor (% residual activity)", "setting": "[4]", "value": 55}, {"measurement": "% residual activity at 0.0625 mg/ml Bowman-Birk inhibitor (% residual activity)", "setting": "[4]", "value": 26}, {"measurement": "% residual activity at 0.125 mg/ml Bowman-Birk inhibitor (% residual activity)", "setting": "[4]", "value": 9.5}, {"measurement": "% residual activity at 0.25 mg/ml Bowman-Birk inhibitor (% residual activity)", "setting": "[4]", "value": 2.9}, {"measurement": "% residual activity at 0.5 mg/ml Bowman-Birk inhibitor (% residual activity)", "setting": "[4]", "value": 1.3}]}
